B1: Ceroid-lipofuscinosis neuronal protein 6 (Homo sapiens), Q9NWW5 (parent)
chain: MEATRRRQHLGATGGPGAQLGASFLQARHGSVSADEAARTAPFHLDLWFYFTLQNWVLDFGRPIAMLVFPLEWFPLNKPSVGDYFHMAYNVITPFLLLKLIERSPRTLPRSITYVSIIIFIMGASIHLVGDSVNHRLLFSGYQHHLSVRENPIIKNLKPETLIDSFELLYYYDEYLGHCMWYIPFFLILFMYFSGCFTASKAESLIPGPALLLVAPSGLYYWYLVTEGQIFILFIFTFFAMLALVLHQKRKRLFLDSNGLFLFSSFALTLLLVALWVAWLWNDPVLRKKYPGVIYVPEPWAFYTLHVSSRH
B2: Succinate--CoA ligase [ADP-forming] subunit beta, mitochondrial (Homo sapiens), Q9P2R7 (parent)
chain: MAASMFYGRLVAVATLRNHRPRTAQRAAAQVLGSSGLFNNHGLQVQQQQQRNLSLHEYMSMELLQEAGVSVPKGYVAKSPDEAYAIAKKLGSKDVVIKAQVLAGGRGKGTFESGLKGGVKIVFSPEEAKAVSSQMIGKKLFTKQTGEKGRICNQVLVCERKYPRREYYFAITMERSFQGPVLIGSSHGGVNIEDVAAESPEAIIKEPIDIEEGIKKEQALQLAQKMGFPPNIVESAAENMVKLYSLFLKYDATMIEINPMVEDSDGAVLCMDAKINFDSNSAYRQKKIFDLQDWTQEDERDKDAAKANLNYIGLDGNIGCLVNGAGLAMATMDIIKLHGGTPANFLDVGGGATVHQVTEAFKLITSDKKVLAILVNIFGGIMRCDVIAQGIVMAVKDLEIKIPVVVRLQGTRVDDAKALIADSGLKILACDDLDEAARMVVKLSEIVTLAKQAHVDVKFQLPI
B3: Transmembrane protein 43 (Homo sapiens), Q9BTV4 (parent)
chain: MAANYSSTSTRREHVKVKTSSQPGFLERLSETSGGMFVGLMAFLLSFYLIFTNEGRALKTATSLAEGLSLVVSPDSIHSVAPENEGRLVHIIGALRTSKLLSDPNYGVHLPAVKLRRHVEMYQWVETEESREYTEDGQVKKETRYSYNTEWRSEIINSKNFDREIGHKNPSAMAVESFMATAPFVQIGRFFLSSGLIDKVDNFKSLSLSKLEDPHVDIIRRGDFFYHSENPKYPEVGDLRVSFSYAGLSGDDPDLGPAHVVTVIARQRGDQLVPFSTKSGDTLLLLHHGDFSAEEVFHRELRSNSMKTWGLRAAGWMAMFMGLNLMTRILYTLVDWFPVFRDLVNIGLKAFAFCVATSLTLLTVAAGWLFYRPLWALLIAGLALVPILVARTRVPAKKLE
partner: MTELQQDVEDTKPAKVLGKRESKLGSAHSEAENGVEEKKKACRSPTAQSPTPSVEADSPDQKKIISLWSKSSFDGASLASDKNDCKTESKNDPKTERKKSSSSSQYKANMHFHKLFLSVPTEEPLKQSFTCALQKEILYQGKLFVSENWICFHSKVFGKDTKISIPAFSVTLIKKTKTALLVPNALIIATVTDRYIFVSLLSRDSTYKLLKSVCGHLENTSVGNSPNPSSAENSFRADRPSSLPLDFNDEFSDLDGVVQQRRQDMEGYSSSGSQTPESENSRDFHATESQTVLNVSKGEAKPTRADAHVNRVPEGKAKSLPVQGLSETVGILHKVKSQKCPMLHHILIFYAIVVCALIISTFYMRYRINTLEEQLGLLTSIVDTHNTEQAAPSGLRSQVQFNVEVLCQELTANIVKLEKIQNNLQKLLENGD
B4: Very-long-chain enoyl-CoA reductase (Homo sapiens), Q9NZ01 (parent)
chain: MKHYEVEILDAKTREKLCFLDKVEPHATIAEIKNLFTKTHPQWYPARQSLRLDPKGKSLKDEDVLQKLPVGTTATLYFRDLGAQISWVTVFLTEYAGPLFIYLLFYFRVPFIYGHKYDFTSSRHTVVHLACICHSFHYIKRLLETLFVHRFSHGTMPLRNIFKNCTYYWGFAAWMAYYINHPLYTPPTYGAQQVKLALAIFVICQLGNFSIHMALRDLRPAGSKTRKIPYPTKNPFTWLFLLVSCPNYTYEVGSWIGFAIMTQCLPVALFSLVGFTQMTIWAKGKHRSYLKEFRDYPPLRMPIIPFLL
partner: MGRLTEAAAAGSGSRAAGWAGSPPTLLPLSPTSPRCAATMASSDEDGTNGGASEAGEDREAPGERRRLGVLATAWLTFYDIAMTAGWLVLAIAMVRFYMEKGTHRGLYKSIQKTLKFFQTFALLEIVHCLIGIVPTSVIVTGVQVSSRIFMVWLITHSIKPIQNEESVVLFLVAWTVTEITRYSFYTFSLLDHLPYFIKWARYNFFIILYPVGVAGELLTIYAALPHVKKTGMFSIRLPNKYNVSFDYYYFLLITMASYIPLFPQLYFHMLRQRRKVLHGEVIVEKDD
B5: Catenin alpha-3 (Homo sapiens), Q9UI47-2 (parent)
chain: MSAETPITLNIDPQDLQVQTFTVEKLLEPLIIQVTTLVNCPQNPSSRKKGRSKRASVLLASVEEATWNLLDKGEKIAQEATVLKDELTASLEEVRKESEALKVSAERFTDDPCFLPKREAVVQAARALLAAVTRLLILADMIDVMCLLQHVSAFQRTFESLKNVANKSDLQKTYQKLGKELENLDYLAFKRQQDLKSPNQRDEIAGARASLKENSPLLHSICSACLEHSDVASLKASKDTVCEEIQNALNVISNASQGIQNMTTPPEPQAATLGSALDELENLIVLNPLTVTEEEIRPSLEKRLEAIISGAALLADSSCTRDLHRERIIAECNAIRQALQDLLSEYMNNAGKKERSNTLNIALDNMCKKTRDLRRQLRKAIIDHVSDSFLDTTVPLLVLIEAAKNGREKEIKEYAAIFHEHTSRLVEVANLACSMSTNEDGIKIVKIAANHLETLCPQIINAALALAARPKSQAVKNTMEMYKRTWENHIHVLTEAVDDITSIDDFLAVSGMFLFF
partner: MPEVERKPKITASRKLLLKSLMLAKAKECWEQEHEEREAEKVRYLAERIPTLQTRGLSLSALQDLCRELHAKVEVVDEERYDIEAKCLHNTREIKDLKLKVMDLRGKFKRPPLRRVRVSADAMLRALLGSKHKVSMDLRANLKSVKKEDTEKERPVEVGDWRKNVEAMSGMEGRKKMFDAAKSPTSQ
B6: Succinate--CoA ligase [ADP-forming] subunit beta, mitochondrial (Homo sapiens), Q9P2R7 (parent)
chain: B2 chain
partner: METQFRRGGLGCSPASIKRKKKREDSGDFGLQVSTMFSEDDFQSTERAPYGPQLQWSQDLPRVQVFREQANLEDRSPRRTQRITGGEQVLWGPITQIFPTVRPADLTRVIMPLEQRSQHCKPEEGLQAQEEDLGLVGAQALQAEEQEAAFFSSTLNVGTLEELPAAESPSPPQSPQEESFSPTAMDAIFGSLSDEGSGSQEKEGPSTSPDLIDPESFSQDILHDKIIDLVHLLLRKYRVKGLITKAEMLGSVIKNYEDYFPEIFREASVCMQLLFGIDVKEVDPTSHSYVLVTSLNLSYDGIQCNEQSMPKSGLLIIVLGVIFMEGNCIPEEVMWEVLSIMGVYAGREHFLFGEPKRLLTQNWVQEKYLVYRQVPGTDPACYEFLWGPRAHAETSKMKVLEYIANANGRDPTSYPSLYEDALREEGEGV

In one assay the parent is B1. The following applies: with stx1a_human STX1A.
As for R103Q, the “effect of a mutation on the interaction” value was “with no effect”.

Regarding G123D, the “effect of a mutation on the interaction” value was “with no effect”.

Variants of B1 are the subject of the next assay. The following applies: with ar13b_human ARL13B.
Consider G123D, for which the “effect of a mutation on the interaction” value was “with no effect”.

In another assay the parent is B1. The following applies: with cxa8_human GJA8, P48165.
cxa8_human GJA8, P48165, sequence (P48165 whole entry): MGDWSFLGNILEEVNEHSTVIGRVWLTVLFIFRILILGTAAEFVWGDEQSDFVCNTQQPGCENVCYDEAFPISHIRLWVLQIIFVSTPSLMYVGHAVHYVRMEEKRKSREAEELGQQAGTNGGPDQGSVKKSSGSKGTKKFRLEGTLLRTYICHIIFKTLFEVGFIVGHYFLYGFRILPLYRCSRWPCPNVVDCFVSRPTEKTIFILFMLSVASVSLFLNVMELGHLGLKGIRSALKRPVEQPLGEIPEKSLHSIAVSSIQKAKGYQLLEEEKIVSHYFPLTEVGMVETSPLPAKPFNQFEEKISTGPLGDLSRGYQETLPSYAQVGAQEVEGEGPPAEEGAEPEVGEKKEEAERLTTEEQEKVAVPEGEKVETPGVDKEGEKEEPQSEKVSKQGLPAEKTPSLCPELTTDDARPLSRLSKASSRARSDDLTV
Consider G123D, for which the “effect of a mutation on the interaction” value is recorded as “with no effect”.

In a further assay the parent is B1. The following applies: with ki2l3_human KIR2DL3, P43628.
ki2l3_human KIR2DL3, P43628, sequence (P43628 whole entry): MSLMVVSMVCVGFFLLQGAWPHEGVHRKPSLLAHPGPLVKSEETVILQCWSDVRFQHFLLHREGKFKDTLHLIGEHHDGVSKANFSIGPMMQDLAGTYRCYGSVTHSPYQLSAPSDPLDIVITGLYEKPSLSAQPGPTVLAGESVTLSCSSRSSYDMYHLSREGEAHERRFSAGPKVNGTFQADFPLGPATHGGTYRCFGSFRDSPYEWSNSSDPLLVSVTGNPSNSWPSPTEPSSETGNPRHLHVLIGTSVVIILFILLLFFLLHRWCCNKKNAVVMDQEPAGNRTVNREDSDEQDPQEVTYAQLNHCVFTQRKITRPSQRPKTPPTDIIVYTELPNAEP
As for G123D, the “effect of a mutation on the interaction” value is given as “with no effect”.

The variants in another assay derive from B1. The following applies: with lrc25_human LRRC25, Q8N386.
lrc25_human LRRC25, Q8N386, sequence (Q8N386 whole entry): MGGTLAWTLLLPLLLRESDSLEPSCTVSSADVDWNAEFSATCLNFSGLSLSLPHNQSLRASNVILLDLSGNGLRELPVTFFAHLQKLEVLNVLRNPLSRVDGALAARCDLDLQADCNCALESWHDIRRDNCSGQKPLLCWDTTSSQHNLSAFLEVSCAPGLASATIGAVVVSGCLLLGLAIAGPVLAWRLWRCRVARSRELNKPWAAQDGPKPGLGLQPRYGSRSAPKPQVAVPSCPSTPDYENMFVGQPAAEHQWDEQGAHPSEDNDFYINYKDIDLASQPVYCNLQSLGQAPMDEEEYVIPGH
For G123D, the “effect of a mutation on the interaction” value is given as “with no effect”.

Variants of B1 are the subject of the next assay. The following applies: with tm139_human TMEM139, Q8IV31.
tm139_human TMEM139, Q8IV31, sequence (Q8IV31 whole entry): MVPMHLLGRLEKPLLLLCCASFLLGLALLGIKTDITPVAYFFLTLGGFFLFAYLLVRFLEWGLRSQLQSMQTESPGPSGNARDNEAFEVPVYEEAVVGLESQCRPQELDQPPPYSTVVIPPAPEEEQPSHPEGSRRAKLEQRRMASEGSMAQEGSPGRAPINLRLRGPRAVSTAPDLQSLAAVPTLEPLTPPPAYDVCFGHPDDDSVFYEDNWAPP
Take G123D: the “effect of a mutation on the interaction” value was “with no effect”.

Another assay covers variants of B2. The note with it: with sc23a_human SEC23A.
Turning to D251N, the “effect of a mutation on the interaction” value is “disrupting interaction strength”.

Regarding G118R, the “effect of a mutation on the interaction” value is “disrupting interaction strength”.

The next assay covers variants of B2. The following applies: with mal2_human MAL2, Q969L2.
mal2_human MAL2, Q969L2, sequence (Q969L2 whole entry): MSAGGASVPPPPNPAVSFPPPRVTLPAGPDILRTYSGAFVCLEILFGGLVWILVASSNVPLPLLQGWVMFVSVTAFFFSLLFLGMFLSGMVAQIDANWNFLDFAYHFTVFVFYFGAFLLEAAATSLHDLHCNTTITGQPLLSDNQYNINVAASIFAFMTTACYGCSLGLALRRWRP
In the case of D251N, the “effect of a mutation on the interaction” value was “disrupting interaction strength”.

For G118R, the “effect of a mutation on the interaction” value is reported as “disrupting interaction strength”.

Variants of B2 are the subject of a further assay. The following applies: with ar6p1_human ARL6IP1, Q15041.
ar6p1_human ARL6IP1, Q15041, sequence (Q15041 whole entry): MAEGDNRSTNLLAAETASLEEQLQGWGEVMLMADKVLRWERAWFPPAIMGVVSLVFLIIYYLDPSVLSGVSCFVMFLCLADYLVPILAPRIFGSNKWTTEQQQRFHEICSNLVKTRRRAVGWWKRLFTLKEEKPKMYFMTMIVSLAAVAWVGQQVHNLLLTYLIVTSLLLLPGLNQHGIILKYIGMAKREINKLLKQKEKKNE
As to D251N, the “effect of a mutation on the interaction” value is recorded as “disrupting interaction strength”.

In the case of G118R, the “effect of a mutation on the interaction” value is on record as “disrupting interaction strength”.

Another assay covers variants of B3. The note with it: with grm2b_human GRAMD2B.
For I91V, the “effect of a mutation on the interaction” value is “with no effect”.

As to E142K, the “effect of a mutation on the interaction” value was “with no effect”.

As for E85K, the “effect of a mutation on the interaction” value is given as “with no effect”.

For Y371H, the “effect of a mutation on the interaction” value is “with no effect”.

The variants in the next assay derive from B4. The note with it: with hacd1_human HACD1, B0YJ81.
For P182L, the “effect of a mutation on the interaction” value is recorded as “disrupting interaction strength”.

In another assay the parent is B5. The note with it: with tnni1_human TNNI1, P19237.
Consider V94D, for which the “effect of a mutation on the interaction” value is on record as “with no effect”.

Another assay covers variants of B6. The note with it: with magab_human MAGEA11, P43364.
For the variant D251N, the “effect of a mutation on the interaction” value was “disrupting interaction strength”.

As to G118R, the “effect of a mutation on the interaction” value is “disrupting interaction strength”.

These data come from IntAct's records for PubMed 32296183.
